Test results from PMC8142252, “The Arabidopsis thaliana chloroplast division protein FtsZ1 counterbalances FtsZ2 filament stability in vitro” (The Journal of Biological Chemistry, 2021).

Biological target: T1, AtFtsZ2 (Arabidopsis thaliana FtsZ2-1, full-length mature protein lacking its transit peptide) (Arabidopsis thaliana, UniProt O82533 49-478)
T1 construct: Purified AtFtsZ2 runs as a doublet on SDS-PAGE; also called AtFtsZ2-1; source: E. coli DE3 Rosetta cells overexpressing the E. coli ftsQAZ operon, purified (Ni-NTA); not shown: His6, C-terminal, kept
T1 sequence (looked up): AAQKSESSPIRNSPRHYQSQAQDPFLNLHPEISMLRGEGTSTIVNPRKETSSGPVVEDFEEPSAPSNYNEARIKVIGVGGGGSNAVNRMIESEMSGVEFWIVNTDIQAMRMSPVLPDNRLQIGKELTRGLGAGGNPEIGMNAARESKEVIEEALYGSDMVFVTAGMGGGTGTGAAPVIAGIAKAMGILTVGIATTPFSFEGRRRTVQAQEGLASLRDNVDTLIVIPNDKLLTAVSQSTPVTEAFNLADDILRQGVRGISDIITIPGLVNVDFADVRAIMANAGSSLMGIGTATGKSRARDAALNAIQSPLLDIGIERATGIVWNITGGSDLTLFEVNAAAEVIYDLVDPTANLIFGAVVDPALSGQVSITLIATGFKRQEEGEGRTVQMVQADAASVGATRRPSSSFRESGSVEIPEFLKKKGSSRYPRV
Assay: 90° light scattering; 5 μM AtFtsZ2 (or AtFtsZ2core) mixed with AtFtsZ1, AtFtsZ1 D275A (or AtFtsZ1core) at various ratios before start, HMK buffer, room temperature, started by 10 μM or 500 μM GTP
Conditions: both partners purified

B1: AtFtsZ1 (Arabidopsis thaliana FtsZ1-1, full-length mature protein lacking its transit peptide) (natural protein, UniProt Q42545 58-433, looked up)
chain: RSKSMRLRCSFSPMESARIKVIGVGGGGNNAVNRMISSGLQSVDFYAINTDSQALLQSSAENPLQIGELLTRGLGTGGNPLLGEQAAEESKDAIANALKGSDLVFITAGMGGGTGSGAAPVVAQISKDAGYLTVGVVTYPFSFEGRKRSLQALEAIEKLQKNVDTLIVIPNDRLLDIADEQTPLQDAFLLADDVLRQGVQGISDIITIPGLVNVDFADVKAVMKDSGTAMLGVGVSSSKNRAEEAAEQATLAPLIGSSIQSATGVVYNITGGKDITLQEVNRVSQVVTSLADPSANIIFGAVVDDRYTGEIHVTIIATGFSQSFQKTLLTDPRAAKLLDKMGSSGQQENKGMSLPHQKQSPSTISTKSSSPRRLFF
notes: also called AtFtsZ1-1; source: E. coli DE3 Rosetta cells overexpressing the E. coli ftsQAZ operon, purified (Ni-NTA); not shown: His6, C-terminal, kept
binding result: binds
